According to patent US20100041074A1 (FORERUNNER PHARMA RESEARCH, published 2010):

Tests used:
[1] = molecular target: T1, GST-GRP78 (376-415) (human, UniProt G3I8R9 376-415 (Cricetulus griseus entry)); assay: western blot of GST fused GRP78 fragments (345-385, 376-415, 406-445)
T1 construct: not shown: glutathione S-transferase (GST) encoded by the E. coli expression vector pGEX-6P-1, with the vector's linker

[2] = molecular target: T2, GST fused GRP78 protein (GST-GRP78) purified from E. coli (human, UniProt P11021 19-654); assay: western blot, GST fused GRP78 protein (0.1 ug), antibody 2 µg/ml
T2 construct: also called GRP78-GST fused protein; not shown: glutathione S-transferase (GST) encoded by the E. coli expression vector pGEX-6P-1 (Amersham Pharmacia), with the vector

[3] = molecular target: T3, GRP78 expressed in mouse cells (Ba/F3, NIH3T3), cell lysate (mouse, UniProt P20029 20-655); assay: western blot of NP40 lysates of Ba/F3 and NIH3T3 cells with GA-20 antibody (2 µg/ml)
[4] = molecular target: T4, GRP78 expressed in human cells (cell lysate) (human, UniProt P11021 19-654); assay: western blot, DU145 cell lysate, antibody 2 µg/ml
T4 construct: Endogenous GRP78 in lysates of human cell lines (DU145, MRC5 and others) after SDS-PAGE and blotting; also called GRP78 expressed in DU145 cells; GRP78 protein in cell lysates

[5] = molecular target: T5, GRP78 protein (amino acids 19-654) purified from E. coli (human, UniProt P11021 19-654); assay: ELISA, plate coated with GRP78 protein purified from E. coli, hybridoma culture supernatant
T5 construct: Cut from the GST fusion with PreScission Protease and gel filtered; also called glucose-regulated protein 78; BiP

[6] = molecular target: T6, GRP78 localized on the cell surface of human cancer cells (human, UniProt P11021 19-654); assay: FACS on DU145 cells, antibody 10 µg/ml
T6 construct: Endogenous GRP78 on untransfected human cancer cell lines (DU145, 22Rv1, LoVo, LNcap, MCF7 and others); also called GRP78 on the surface of DU145 cells; surface-located GRP78

[7] = molecular target: GRP78 expressed in hamster ovary cells (DG44), cell lysate (hamster, UniProt G3I8R9 19-654); assay: western blot of NP40 lysate of DG44 cells with GA-20 antibody (2 µg/ml)
[8] = molecular target: T4, GRP78 expressed in human cells (cell …); assay: western blot of cell lysates of human cell lines with GD-17 antibody (2 µg/ml)
[9] = molecular target: T6, GRP78 localized on the cell surface of …; assay: FACS on prostate cancer cell lines DU145 and 22Rv1, hybridoma culture supernatant
[10] = molecular target: MBP-GRP78 (376-415) (human, UniProt G3I8R9 376-415 (Cricetulus griseus entry)); assay: ELISA, plate coated with MBP-GRP78 (376-415) (1 µg/ml), hybridoma culture supernatant
[11] = molecular target: T3, GRP78 expressed in mouse cells (Ba/F3, …); assay: western blot of cell lysates of mouse cell lines with GD-17 antibody (2 µg/ml)
[12] = molecular target: T2, GST fused GRP78 protein (GST-GRP78) …; assay: ELISA, plate coated with GST-GRP78 (1 µg/ml), anti-flag detection; same value told for specimens stored at 4° C., left at 37° C. overnight, or frozen and thawed
[13] = molecular target: T6, GRP78 localized on the cell surface of …; assay: cell-based or functional assay
[14] = molecular target: T2, GST fused GRP78 protein (GST-GRP78) …; assay: ELISA, plate coated with GST-GRP78 (1 µg/ml), HisTrap fractions diluted 40-fold, anti-flag detection

B1: GA-20 antibody (antibody, IgM, V domains shown)
VH: EVQLQQSGPELVKPGASVKISCKTSGYTFTEYTMHWVKQSHGKSLEWIGGINPNNGGTSYNQKFKGKATLTVDKSSSTAYMELRSLTSEDSAVYYCAREKYGNYYAMDYWGQGTSVTVSS
VL: DIVMSQSPSSLAVSAGEKVTMSCKSSQSLLNSRTRKNYLAWYQQKPGQSPKLLIYWASTRESGVPDRFTGSGSGTDFTLTISSVQAEDLAVYYCKQSYNLRTFGGGTKLEIK
notes: Mouse monoclonal from hybridoma, subtype M (IgM); light chain cloned with a kappa primer
B1: binds [1]; binds [2]; binds [3]. B1: binds [4]; binds [5]; binds [6]. B1: binds [7].

B2: GD-17 antibody (antibody, IgG1, V domains shown)
VH: QVQLQQSGAELARPGASVKLSCKASGYTFTSYWMHWVKQRPGQGLEWIGAIYPGDGDTRYTQKFKGKATLTADKSSSTAYMQLSSLASEDSAVYYCASGITAVADYWGQGTTLTVSS
VL: DVVMTQTPLSLPVSLGDQASISCRSSQSLVHSNGNTYLHWYLQKPGQSPKLLIYKVSNRFSGVPDRFSGSGSGTDFTLKISRVEAEDLGVYFCSQSTHVPLTFGAGTKLELK
notes: Mouse monoclonal from hybridoma, subtype G1 (IgG1)
B2: binds [8]; binds [9]; binds [10]. B2: binds [11].

B3: GD-4 antibody (antibody, IgG1, V domains shown)
VH: EVQLVETGGGLVQPKGSLKLSCAASGFTFNTNAMNWVRQAPGKGLEWVARIRSKSNNYAAYYADSVKDRFTISRDDSQSMLYLQMNNLKTEDTAMYYCVREGYGYSLYFDYWGQGTTLTVSS
VL: DIVMTQSPTFLAVTASKKVTINCTASESLYSSKHKVHYLAWYQKKPDQSPKLLIYGASNRYIGVPDRFTGSGSGTDFTLTISSVQVEDLTHYYCAQFYSYPLTFGAGTKLELK
notes: as for B2
B3: binds [9]; binds [10].

B4: toxin-labeled GD17 single-chain antibody (GD17scFv-PE40) (scFv)
scFv: MDHHHHHHHHHHKLQVQLQQSGAELARPGASVKLSCKASGYTFTSYWMHWVKQRPGQGLEWIGAIYPGDGDTRYTQKFKGKATLTADKSSSTAYMQLSSLASEDSAVYYCASGITAVADYWGQGTTLTVSSGGGGSGGGGSGGGGSDVVMTQTPLSLPVSLGDQASISCRSSQSLVHSNGNTYLHWYLQKPGQSPKLLIYKVSNRFSGVPDRFSGSGSGTDFTLKISRVEAEDLGVYFCSQSTHVPLTFGAGTKLELKEFGGAPEFPKPSTPPGSSGLEGGSLAALTAHQACHLPLETFTRHRQPRGWEQLEQCGYPVQRLVALYLAARLSWNQVDQVIRNALASPGSGGDLGEAIREQPEQARLALTLAAAESERFVRQGTGNDEAGAANADVVSLTCPVAAGECAGPADSGDALLERNYPTGAEFLGDGGDVSFSTRGTQNWTVERLLQAHRQLEERGYVFVGYHGTFLEAAQSIVFGGVRARSQDLDAIWRGFYIAGDPALAYGYAQDQEPDARGRIRNGALLRVYVPRSSLPGFYRTSLTLAAPEAAGEVERLIGHPLPLRLDAITGPEEEGGRLETILGWPLAERTVVIPSAIPTDPRNVGGDLDPSSIPDKEQAISALPDYASQPGKPPDYKDDDDKKDEL
notes: also called GA17_scFv-PE40
B4 was tested, and the EC50 [12] was about 1.3 nM and the “cytotoxic activity, EC50 on MCF7 and 22Rv1 cells” value [13] was 2 to 4 nM.

B5: toxin-labeled GA-20 single-chain Fv antibody (GA20-PE40) (scFv)
scFv: MDHHHHHHHHHHKLEVQLQQSGPELVKPGASVKISCKTSGYTFTEYTMHWVKQSHGKSLEWIGGINPNNGGTSYNQKFKGKATLTVDKSSSTAYMELRSLTSEDSAVYYCAREKYGNYYAMDYWGQGTSVTVSSGGGGSGGGGSGGGGSDIVMSQSPSSLAVSAGEKVTMSCKSSQSLLNSRTRKNYLAWYQQKPGQSPKLLIYWASTRESGVPDRFTGSGSGTDFTLTISSVQAEDLAVYYCKQSYNLRTFGGGTKLEIKEFGGAPEFPKPSTPPGSSGLEGGSLAALTAHQACHLPLETFTRHRQPRGWEQLEQCGYPVQRLVALYLAARLSWNQVDQVIRNALASPGSGGDLGEAIREQPEQARLALTLAAAESERFVRQGTGNDEAGAANADVVSLTCPVAAGECAGPADSGDALLERNYPTGAEFLGDGGDVSFSTRGTQNWTVERLLQAHRQLEERGYVFVGYHGTFLEAAQSIVFGGVRARSQDLDAIWRGFYIAGDPALAYGYAQDQEPDARGRIRNGALLRVYVPRSSLPGFYRTSLTLAAPEAAGEVERLIGHPLPLRLDAITGPEEEGGRLETILGWPLAERTVVIPSAIPTDPRNVGGDLDPSSIPDKEQAISALPDYASQPGKPPDYKDDDDKKDEL
notes: also called GA20scFv-PE40; toxin-labeled GA-20 scFv antibody
B5: binds [14].

B6: GC-18 antibody (antibody, IgG1, V domains shown)
VH: DVRLQESGPGQVKPSQTVSLTCSVTGYSITNGNHWWNWIRQVSGSKLEWIGYISSSGSTDSNPSLKSRISITRDTSKNQLFLQLNSVTTEDIATYYCARGYYFDYWGQGTTLTVSS
VL: DIVLTQSPASLAVSLGQSVTISCRASESVEYYGTSLMQWYQQKPGQPPKLLIYATSNVESGVPARFSGSGSGTDFSLNIHPVEEDDIAMYFCQQSRKLPSTFGGGTKLEIK
notes: as for B2
B6: binds [9]; binds [10].
